Measured values published in patent US20250179196A1 (Janssen / Centocor, published 2025).

T1: rat IL-23R extracellular domain (ECD) protein (rat)
T1 construct: also called rat IL-23R ECD; F1LX96 amino acids 24-354
T1 chain: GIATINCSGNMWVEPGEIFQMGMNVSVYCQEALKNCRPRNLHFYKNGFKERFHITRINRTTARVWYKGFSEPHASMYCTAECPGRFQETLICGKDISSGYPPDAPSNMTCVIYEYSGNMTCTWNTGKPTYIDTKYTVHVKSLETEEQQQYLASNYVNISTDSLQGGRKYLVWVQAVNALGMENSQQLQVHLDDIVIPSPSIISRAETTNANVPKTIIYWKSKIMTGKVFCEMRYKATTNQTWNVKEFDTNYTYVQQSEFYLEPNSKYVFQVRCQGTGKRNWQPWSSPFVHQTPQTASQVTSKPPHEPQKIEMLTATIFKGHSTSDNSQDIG

T2: Recombinant human IL-23 receptor (IL-23R) extracellular domain (ECD) protein (human, UniProt Q5VWK5 24-355)
T2 construct: also called human IL-23R ECD; hu IL-23R ECD
T2 sequence: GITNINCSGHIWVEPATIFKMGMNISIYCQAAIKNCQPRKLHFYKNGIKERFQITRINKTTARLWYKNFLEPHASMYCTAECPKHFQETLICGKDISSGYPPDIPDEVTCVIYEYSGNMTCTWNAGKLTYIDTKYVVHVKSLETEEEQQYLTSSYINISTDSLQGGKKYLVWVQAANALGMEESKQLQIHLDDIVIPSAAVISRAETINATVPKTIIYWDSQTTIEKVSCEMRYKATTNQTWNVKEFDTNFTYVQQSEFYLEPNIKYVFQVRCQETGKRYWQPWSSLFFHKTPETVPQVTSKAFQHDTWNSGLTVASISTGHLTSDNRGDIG

B1: I23RB32 (antibody, mouse IgG2a, kappa, V domains shown)
VH: EFQLQQSGPELVKPGASVKLSCKASGYTFTDYALHWVKQSPGQGLEWIGWIYPGGGNTYYNDKFKGKATMTADKSSSTAYMQLSSLTSEDSAVYFCARGRLRRDYPMDYWGQGTSVTVSS
VL: DIVMTQSPSSLTVTAGEKVTMSCKSSQSLLNSGNQKNYLTWYQQKPGQPPKLLIYWASTRESGVPDRFTGSGSGTDFTLTISSVQAEDLAVYYCQNDYTYPLTFGSGTKLEIKR
notes: mouse immunization; mouse IgG2a/kappa
B2: I23RB1 (antibody, mouse IgG2a, kappa, V domains shown)
VH: QVQLVQSGAEVKKPGSSVKVSCKASGGTFKNYAISWVRQAPGQGLEWMGWIRPIFGTAYYAQKFQGRVTITADESTSTAYMELSSLRSEDTAVYYCARDSGSRYAGRYAFDYWGQGTLVTVSS
VL: EIVLTQSPATLSLSPGERATLSCRASQSVSSYLAWYQQKPGQAPRLLIYDASNRATGIPARFSGSGSGTDFTLTISSLEPEDFAVYYCQQRSNWPLTFGQGTKVEIKR
notes: phage display; human V regions, mouse IgG2a/kappa constant regions
B3: I23RB3 (antibody, mouse IgG2a, kappa, V domains shown)
VH: QVQLVQSGAEVKKPGSSVKVSCKASGGTFKSYSIHWVRQAPGQGLEWMGGIIPYFGYANYAQKFQGRVTITADESTSTAYMELSSLRSEDTAVYYCARERGYYGSIYYGGGFDYWGQGTLVTVSS
VL: EIVLTQSPATLSLSPGERATLSCRASQSVSSYLAWYQQKPGQAPRLLIYDASNRATGIPARFSGSGSGTDFTLTISSLEPEDFAVYYCQQRSNWPLTFGQGTKVEIKR
notes: as for B2
B4: I23RB7 (antibody, mouse IgG2a, kappa, V domains shown)
VH: QIQLVQSGPELKKPGETVKISCKASGYTFTTYGMSWVKQAPGKGLKWMGWINTYSGVPTYADDFKGRFAFSLETSASTAYLQINNLKNEDTATYYCARRDRYGYVAGAFAYWGQGTLVTVSS
VL: QIVLTQSPAIMSASPGEKVTMTCSASSSVSYMYWYQQKPGSSPRLLIYDTSNLASGVPVRFSGSGSGTSYSLTISRMEAEDAATYYCQQWSSYPWTFGGGTKLEIKR
notes: phage display (mouse library); mouse antibody, mouse IgG2a/kappa
B5: I23RB33 (antibody, mouse IgG2a, kappa, V domains shown)
VH: EVQLQQSGAELVKPGASVKLSCTASGFNIRDIYIHWVKQRPEQGLEWIGRIDPANGHSIYAAKFQGKATITADTSLNIAYMQLSSLTSGDTAVYYCARGSDNDYGRVLAYWGLGTSVTVSS
VL: DIVLTQSPAIMSASPGEKVTMTCRASSSVRSSYLHWYQQKSGASPKLWIYSTSNLASGVPARFSGSGSGTSYSLTITSVEAEDAATYYCQQYTGNPIFTFGSGTKLELKR
notes: as for B1
B6: I23RB101 (antibody, mouse IgG2a, kappa, V domains shown)
VH: EVQLQQSGAEVKKPGSSVKVSCKASGGTFSSYAISWVRQAPGQGLEWMGWINPNSGGTNYAQKFQGRVTMTRDTSISTAYMELSRLRSDDTAVYYCARGYRYGPLDGFDIWGQGTTLTVSS
VL: DIVMTQSHKFMSTSIGDRVSITCKTSQDVRTAVAWYQQKPGQSPKLLIYSASYRYIGVPDRFTGSGSGTDFTFTISDVQAEDLALYYCQQHYSTPYTFGGGTKLEIKR
notes: as for B1
B7: I23RB35 (antibody, mouse IgG2a, kappa, V domains shown)
VH: DVQLQESGPGLVKPSQSLSLTCSVTGYSITSGHNWNWIRQFPGNKLEWLGYISYDGSNNYDPSLKNRISITRDTSKNQFFLKLNSVTTEDTATYYCARGGGYFGNSYRVFASWGQGTTVTVSS
VL: DIVLTQSPASLAVSLGQRATISCRASESVDSYGNSFMHWYQQKPGQPPKLLIYRASNLESEIPARFSGRGSGTDFTLTINPVEADDVATYYCQQSNADPYTFGGGTKLEIKR
notes: as for B1
B8: I23RB47 (antibody, mouse IgG2a, kappa, V domains shown)
VH: QVQLKESGPGLVAPSQSLSITCTVSGFSLTNYDIHWVRQSPGKGLEWLGVIWSDGRTDYKGAFISRLSISKDNSKSQVFFKMNSLQADDTAIYYCARNNYYRYGRNTMDYWGQGTSVTVSS
VL: DIVLTQSPASQSASLGESVTITCLASQTIGSWLAWYQQKPGKSPQLLIYAATRLADGVPSRFSGSGSGTKFSFKISSLQAEDFVFYYCHQLYSIPLTFGGGTKLEMKR
notes: as for B1

Key:
[1] = biological target: T1, rat IL-23R extracellular domain (ECD) …; experiment: SPR Biacore 8K, purified
Protocol: (§1) Affinity by SPR using Biacore 8K. Affinity measurements using Surface Plasmon Resonance (SPR) were performed using a Biacore 8K system (Cytiva). […] Approximately 9000-10000 RU (response units) of mAbs were immobilized. The kinetic experiments were performed at 25° C. in running buffer 1× of (HBS-P+ Buffer 10× (Cytiva #BR100671)+100 μg/ml BSA). To perform kinetic experiments, approximately 150 RU of mAbs were captured followed by injections of human IL-23R or rat IL-23R at concentrations ranging from 0.8 nM to 500 nM (in a 5-fold serial dilution). The association phase was monitored for 3 minutes at 50 μL/min, then followed by 30 minutes of buffer flow (dissociation phase). […] The collected data were processed using Biacore insight Evaluation software (Version 3.0.12.15655). The kinetic analysis of the data was performed using a Langmuir 1:1 binding model. The result for each mAb was reported in the format of Ka (On-rate), Kd (Off-rate) and KD (equilibrium dissociation constant).

[2] = biological target: T2, Recombinant human IL-23 receptor …; experiment: SPR Biacore 8K, purified, analysis 1
Protocol: as §1

[3] = biological target: T2, Recombinant human IL-23 receptor …; experiment: SPR Biacore 8K, purified, analysis 2
Protocol: as §1

[4] = biological target: T2, Recombinant human IL-23 receptor …; experiment: SPR ProteOn, purified
Protocol: Affinity by SPR using ProteOn. Affinity measurements using Surface Plasmon Resonance (SPR) were performed using a ProteOn XPR36 system (BioRad). […] Approximately 6000 RU (response units) of mAbs were immobilized. The kinetic experiments were performed at 25° C. in running buffer (DPBS+0.01% P20+100 μg/ml BSA). […] The association phase was monitored for 3 minutes at 50 μL/min, then followed by 10 minutes of buffer flow (dissociation phase). The chip surface was regenerated with two 18 second pulses of 100 mM H3PO4 (Sigma, Cat #7961) at 100 μL/min. The collected data were processed using ProteOn Manager software. First, the data was corrected for background using inter-spots. Then, double reference subtraction of the data was performed by using the buffer injection for analyte injections. The kinetic analysis of the data was performed using a Langmuir 1:1 binding model. The result for each mAb was reported in the format of Ka (On-rate), Kd (Off-rate) and KD (equilibrium dissociation constant).

[5] = biological target: T2, Recombinant human IL-23 receptor …; experiment: SPR Biacore 8K, supernatant, analysis 2
How it was run: (§2)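 mAbs captured (~150 RU) on Biacore 8K; human or rat IL-23R ECD injected at 0.8–500 nM (5-fold series) at 25 °C in HBS-P+ with 100 μg/ml BSA. Association 3 min at 50 μL/min, dissociation 30 min. Ka, Kd and KD from Langmuir 1:1 fit.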

[6] = biological target: T1, rat IL-23R extracellular domain (ECD) …; experiment: SPR Biacore 8K, supernatant
How it was run: as §2

[7] = biological target: T2, Recombinant human IL-23 receptor …; experiment: SPR Biacore 8K, supernatant, analysis 1
How it was run: as §2

| Binder | binding result [1] | Kd [2] [nM] | koff [2] [s⁻¹] | kon [2] [M⁻¹ s⁻¹] | Kd [3] [nM] | koff [3] [s⁻¹] | kon [3] [M⁻¹ s⁻¹] | Kd [4] [nM] | koff [4] [s⁻¹] | kon [4] [M⁻¹ s⁻¹] | Kd [5] [nM] | koff [5] [s⁻¹] | kon [5] [M⁻¹ s⁻¹] | binding result [6] | Kd [1] [nM] | koff [1] [s⁻¹] | kon [1] [M⁻¹ s⁻¹] | Kd [7] [nM] | koff [7] [s⁻¹] | kon [7] [M⁻¹ s⁻¹] |
| --- | --- | --- | --- | --- | --- | --- | --- | --- | --- | --- | --- | --- | --- | --- | --- | --- | --- | --- | --- | --- |
| B1 | no binding (tested: 500 nM) | 0.332 | 0.000182 | 550000 | 0.34 | 0.000172 | 506000 |  |  |  |  |  |  |  |  |  |  |  |  |  |
| B2 | no binding (tested: 500 nM) | 2.8 | 0.00111 | 399000 |  |  |  | 0.667 | 0.00229 | 3.45e+06 | 2.62 | 0.000982 | 376000 |  |  |  |  |  |  |  |
| B3 |  | 4.76 | 0.000255 | 53600 |  |  |  | 1.92 | 0.000335 | 174000 | 3.99 | 0.000233 | 58300 | no binding (tested: 500 nM) |  |  |  |  |  |  |
| B4 |  |  |  |  | 1.23 | 0.000246 | 199000 | 0.39 | 0.000226 | 581000 | 1.23 | 0.000247 | 200000 |  | 524 | 0.0127 | 24200 |  |  |  |
| B5 | no binding (tested: 500 nM) | 0.162 | 0.000155 | 957000 | 0.216 | 0.000149 | 691000 |  |  |  | 0.218 | 0.000146 | 672000 |  |  |  |  |  |  |  |
| B6 | no binding (tested: 500 nM) |  |  |  |  |  |  |  |  |  |  |  |  |  |  |  |  |  |  |  |
| B7 | no binding (tested: 500 nM) | < 0.0527 | < 2.89e-05 | 549000 | < 0.0687 | < 2.89e-05 | 421000 |  |  |  | < 0.0777 | < 2.89e-05 | 372000 |  |  |  |  |  |  |  |
| B8 | no binding (tested: 500 nM) |  |  |  | 0.114 | 5.17e-05 | 453000 |  |  |  | 0.119 | 5.32e-05 | 445000 |  |  |  |  | < 0.051 | < 2.89e-05 | 566000 |
